Article doi:10.1101/2020.02.01.930206 (bioRxiv, 2020)
One block for each binder: values may come before it.

What was measured:
[1] = target: T1, Drosophila melanogaster CIAO1 (Drosophila melanogaster, UniProt Q7K1Y4 1-335); experiment: crystal structure
T1 sequence: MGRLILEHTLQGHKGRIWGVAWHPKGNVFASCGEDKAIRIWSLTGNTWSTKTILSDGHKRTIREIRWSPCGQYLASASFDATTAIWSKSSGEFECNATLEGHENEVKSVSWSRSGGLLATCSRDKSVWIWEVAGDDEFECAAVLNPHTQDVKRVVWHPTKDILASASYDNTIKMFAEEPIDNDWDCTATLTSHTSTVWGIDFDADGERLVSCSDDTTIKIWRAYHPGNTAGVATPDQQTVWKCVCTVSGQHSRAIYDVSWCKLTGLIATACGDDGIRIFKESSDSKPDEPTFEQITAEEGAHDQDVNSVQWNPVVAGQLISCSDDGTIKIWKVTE

full-length mouse MMS19 = target: T2, full-length mouse MMS19 (mouse, UniProt Q9D071 1-1031); experiment: crystal structure
T2 sequence: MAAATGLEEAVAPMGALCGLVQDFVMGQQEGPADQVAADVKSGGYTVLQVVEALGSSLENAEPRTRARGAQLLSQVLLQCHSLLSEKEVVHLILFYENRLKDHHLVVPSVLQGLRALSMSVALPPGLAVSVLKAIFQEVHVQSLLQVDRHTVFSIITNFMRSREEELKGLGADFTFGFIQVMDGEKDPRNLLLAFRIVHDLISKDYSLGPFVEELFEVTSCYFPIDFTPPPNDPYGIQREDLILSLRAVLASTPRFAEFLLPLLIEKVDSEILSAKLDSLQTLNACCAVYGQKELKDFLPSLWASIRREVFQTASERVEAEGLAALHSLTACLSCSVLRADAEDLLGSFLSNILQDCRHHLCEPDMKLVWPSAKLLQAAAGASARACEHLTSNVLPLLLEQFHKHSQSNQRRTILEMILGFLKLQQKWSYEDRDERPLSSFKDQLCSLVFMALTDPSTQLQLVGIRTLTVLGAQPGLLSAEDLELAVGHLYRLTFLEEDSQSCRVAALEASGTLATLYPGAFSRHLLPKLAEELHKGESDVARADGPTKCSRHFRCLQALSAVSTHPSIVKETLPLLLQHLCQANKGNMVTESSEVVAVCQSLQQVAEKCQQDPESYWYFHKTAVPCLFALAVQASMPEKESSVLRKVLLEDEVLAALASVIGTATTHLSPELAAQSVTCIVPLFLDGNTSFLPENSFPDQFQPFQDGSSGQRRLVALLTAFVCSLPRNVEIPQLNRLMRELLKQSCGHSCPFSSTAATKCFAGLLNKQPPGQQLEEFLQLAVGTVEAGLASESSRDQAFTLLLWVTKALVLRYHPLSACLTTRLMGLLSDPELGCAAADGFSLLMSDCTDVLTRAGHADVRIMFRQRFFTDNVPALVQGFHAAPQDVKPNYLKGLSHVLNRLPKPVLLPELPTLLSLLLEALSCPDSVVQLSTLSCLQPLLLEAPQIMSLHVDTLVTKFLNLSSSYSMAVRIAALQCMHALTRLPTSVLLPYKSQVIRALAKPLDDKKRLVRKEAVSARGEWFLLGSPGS

crystal structure = target: the molecule itself; experiment: crystal structure
[2] = target: full-length human CIA targeting complex (MMS19-CIAO1-CIAO2B) (human, UniProt Q96T76;O76071;Q9Y3D0); experiment: ITC
[3] = target: human MMS19^381-1030-CIAO1-CIAO2B complex (human, UniProt Q96T76;O76071;Q9Y3D0); experiment: ITC
[4] = target: human CIAO1-CIAO2B core complex (human, UniProt O76071;Q9Y3D0); experiment: ITC
[5] = target: the molecule itself; experiment: negative-stain electron microscopy

Chain of human MMS19^381-1030-CIAO1-CIAO2B complex (O76071 whole entry, one chain of several): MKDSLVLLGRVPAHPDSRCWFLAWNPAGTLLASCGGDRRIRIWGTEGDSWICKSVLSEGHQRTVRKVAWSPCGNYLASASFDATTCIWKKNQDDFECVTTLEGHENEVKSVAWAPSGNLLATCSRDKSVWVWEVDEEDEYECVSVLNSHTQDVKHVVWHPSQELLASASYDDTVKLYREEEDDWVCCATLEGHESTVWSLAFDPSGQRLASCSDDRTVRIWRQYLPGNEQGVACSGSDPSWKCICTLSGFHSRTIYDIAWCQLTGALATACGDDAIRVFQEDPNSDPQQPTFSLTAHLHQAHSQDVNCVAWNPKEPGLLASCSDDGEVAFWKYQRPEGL
Chain of full-length human CIA targeting complex (MMS19-CIAO1-CIAO2B) (O76071 whole entry, one chain of several): as above
Chain of human CIAO1-CIAO2B core complex (O76071 whole entry, one chain of several): as above

binding result [1]: binds
binding result (full-length mouse MMS19): binds
B1: Drosophila melanogaster CIAO2B (natural protein)
chain: MPTEIENINPNVYDRIKERVLTANEEDENVPDPFDKREIFDLIRNINDPEHPLTLEELHVVQEDLIRINDSQNSVHISFTPTIPHCSMATLIGLSIRVKLLRSLPPRFKVTVEITPGTHASELAVNKQLADKERVAAALENNHLAEVINQCIAAKG
binding result (crystal structure): binds

binding result (full-length mouse MMS19): binds
B2: Drosophila melanogaster CIAO1-CIAO2B core complex (complex)
chain 1: T1 sequence
chain 2: B1 chain

Kd [2]: 35 nM
Kd [3]: 508 nM
B3: human primase (PriL-PriS heterodimer) (complex)
chain 1: MEFSGRKWRKLRLAGDQRNASYPHCLQFYLQPPSENISLIEFENLAIDRVKLLKSVENLGVSYVKGTEQYQSKLESELRKLKFSYRENLEDEYEPRRRDHISHFILRLAYCQSEELRRWFIQQEMDLLRFRFSILPKDKIQDFLKDSQLQFEAISDEEKTLREQEIVASSPSLSGLKLGFESIYKIPFADALDLFRGRKVYLEDGFAYVPLKDIVAIILNEFRAKLSKALALTARSLPAVQSDERLQPLLNHLSHSYTGQDYSTQGNVGKISLDQIDLLSTKSFPPCMRQLHKALRENHHLRHGGRMQYGLFLKGIGLTLEQALQFWKQEFIKGKMDPDKFDKGYSYNIRHSFGKEGKRTDYTPFSCLKIILSNPPSQGDYHGCPFRHSDPELLKQKLQSYKISPGGISQILDLVKGTHYQVACQKYFEMIHNVDDCGFSLNHPNQFFCESQRILNGGKDIKKEPIQPETPQPKPSVQKTKDASSALASLNSSLEMDMEGLEDYFSEDS
chain 2: METFDPTELPELLKLYYRRLFPYSQYYRWLNYGGVIKNYFQHREFSFTLKDDIYIRYQSFNNQSDLEKEMQKMNPYKIDIGAVYSHRPNQHNTVKLGAFQAQEKELVFDIDMTDYDDVRRCCSSADICPKCWTLMTMAIRIIDRALKEDFGFKHRLWVYSGRRGVHCWVCDESVRKLSSAVRSGIVEYLSLVKGGQDVKKKVHLSEKIHPFIRKSINIIKKYFEEYALVNQDILENKESWDKILALVPETIHDELQQSFQKSHNSLQRWEHLKKVASRYQNNIKNDKYGPWLEWEIMLQYCFPRLDINVSKGINHLLKSPFSVHPKTGRISVPIDLQKVDQFDPFTVPTISFICRELDAISTNEEEKEENEAESDVKHRTRDYKKTSLAPYVKVFEHFLENLDKSRKGELLKKSDLQKDF

Kd [4]: 3100 nM
B4: human primase small subunit PriS (natural protein)
chain: B3 chain 2

B5: all-mouse CIA targeting complex (MmMMS19-MmCIAO1-CIAO2B) (complex)
chain 1: T2 sequence
chain 2: not shown
chain 3: MVGGGGSGGGLLENANPLIYERSGERPVTAGEEDEEVPDSIDAREIFDLIRSINDPEHPLTLEELNVVEQVRIQVSDPESTVAVAFTPTIPHCSMATLIGLSIKVKLLRSLPQRFKMDVHITPGTHASEHAVNKQLADKERVAAALENTHLLEVVNQCLSARS
binding result [5]: binds
